Laboratory results: paper PMC5345068, “A Glycyrrhetinic Acid-Modified Curcumin Supramolecular Hydrogel for liver tumor targeting therapy” (Scientific Reports, 2017)
Like-named read-outs stand apart in the source and are kept apart here.

Legend:
mouse NIH 3T3 cells [1] = experiment: cells; details: NIH3T3, 48 h, read-out: IC50, mouse fibroblast 3T3 cells
[2] = water; cited from earlier work
Description: Curcumin (Cur), a hydrophobic polyphenol compound, is derived from the rhizomes of Curcuma longa. Cur has a wide range of therapeutic properties, such as anti-inflammation[18], anti-oxidant[19], anti-mutagenic[20], and anticancer[21] with low or no intrinsic toxicity to healthy cells. […] Fig. S-6A). […] The minimum gelation ...

HepG2 cells [3] = experiment: cells; details: Homo sapiens, HepG2, 48 h, read-out: IC50 HepG2 mean (Table S-1)
[4] = critical micelle concentration (CMC); format: physicochemical; details: Fig. S-7
Description: Fig. S-7. The critical micelle concentration (CMC) of A) GA-cur and B) Nap-cur.
Fig. S-8. The LC-MS traces of the GA-Cur (mw=2398.78,1/ mw=1200.6) and the formed
Fig. S-9. The LC-MS traces of the Nap-Cur ([…]/ mw=1058.6) and the formed

[5] = solubility of pro-gelators in PBS
Procedure: (§1) We therefore tested the gelation ability of the obtained two compounds. […] We then used a rheometer to characterize the resulting hydrogels obtained at 2 h time point. […] We then investigated the fluorescence spectra of the precursors (GA-cur and Nap-cur) and the hydrogels (GA-gel and Nap-gel).
(§2) 3 mg of GA-Cur or Nap-Cur was dissolved in 0.25 mL phosphate buffer saline (PBS) buffer solution (pH = 7.4, adjusted by 1.5 equiv. of Na2CO3). 4equiv. of glutathione (GSH) in 0.05 mL of PBS buffer (pH = 7.4, adjusted by 3.6equiv. of Na2CO3) was added to the above solution.

HepG2 cells [6] = details: 48 h
[7] = gelation test with GSH and hydrogel stability; format: physicochemical; details: PBS pH 7.4, disulfide reduction by GSH
Procedure: as §1, §2

mouse NIH 3T3 cells [8] = details: read-out: IC50, mouse fibroblast 3T3 cells; MTT, 48 h
HepG2 cells [9] = experiment: cellular uptake, HepG2; details: 25 μM, 4 h, 6-well plates, 2.5 × 10^5 cells per well, DMSO lysis, microplate reader excitation 488 nm
Procedure: (§3) After being incubated for 24 h in 6-well plates at a density of 2.5 × 10^5 cells per-well, HepG2 cells were treated with 2 mL growth medium containing 25 μM of Cur, GA-Cur, Nap-Cur, or GA + GA-Cur, respectively. In GA + GA-Cur group, 50 μM of GA was used to pre-treat cells for 2 hours. HepG2 cells were then rinsed for three times with PBS following with a treatment with 25 μM of GA-Cur for another 4 hours. After 4 hours’ incubation, cells were washed for three times with PBS to remove excess compounds and 500 μL of DMSO was added to each well to dissolve compounds in cells. The solution were collected after being treated with sonication for 15 min. The amount of compounds in the cells was determined by a microplate reader excitated at 488 nm. The same experiments were performed with 3T3 cells.

3T3 cells = experiment: cellular uptake, 3T3; details: same experiment as HepG2: 25 μM, 4 h; Fig. S-15
Procedure: as §3

Structure (SMILES) | IC50 (mouse NIH 3T3 cells [1]) [µM] | aqueous solubility [2] | IC50 (HepG2 cells [3]) [µM] | critical micelle concentration (CMC) [4] | well solubilized in phosphate buffer saline at a concentration of [5] [mg/mL] | IC50 (HepG2 cells [6]) [µM] | minimum gelation concentration [7] | IC50 (mouse NIH 3T3 cells [8]) [µM] | well solubilized in phosphate buffer saline at a concentration of ([5]; PBS pH = 7.4, 10 mg/mL = 1 wt%, optical image) [mg/mL] | IC50 (HepG2 cells [6]; read-out: IC50 against HepG2, MTT) [µM] | intra-cellular concentration of Cur, HepG2 (HepG2 cells [9]) [ng/well] | intra-cellular concentration of Cur, 3T3 (3T3 cells) [ng/well]
COc1cc(/C=C/C(=O)CC(=O)/C=C/c2ccc(O)c(OC)c2)ccc1O [Cur, Curcumin] | 28 | ≈ 11 ng/ml | 26.5 | – | – | – | – | – | – | – | – | –
COc1cc(/C=C/C(=O)CC(=O)/C=C/c2ccc(OC(=O)CCCC(=O)NCCCC[C@H](NC(=O)[C@H](Cc3ccc(O)cc3)NC(=O)[C@H](Cc3ccccc3)NC(=O)[C@H](Cc3ccccc3)NC(=O)CNC(=O)[C@@]3(C)CC[C@]4(C)CC[C@]5(C)C(=CC(=O)[C@@H]6[C@@]7(C)CC[C@H](O)C(C)(C)[C@@H]7CC[C@]65C)[C@@H]4C3)C(=O)N[C@@H](CCC(=O)O)C(=O)NCCSSCCNC(=O)CCC(=O)N[C@@H](CCC(=O)O)C(=O)N[C@@H](CCCNC(=N)N)C(=O)NCC(=O)N[C@@H](CC(=O)O)C(=O)O)c(OC)c2)ccc1O [GA-Cur, GA–GFFYK(Cur)E-ss-ERGD] | – | – | – | about 1105 μg/mL | ≥ 10 | 10.7 | about 0.75 wt% | – | – | – | – | –
COc1cc(/C=C/C(=O)CC(=O)/C=C/c2ccc(OC(=O)CCCC(=O)NCCCC[C@H](NC(=O)[C@H](Cc3ccc(O)cc3)NC(=O)[C@H](Cc3ccccc3)NC(=O)[C@H](Cc3ccccc3)NC(=O)CNC(=O)Cc3ccc4ccccc4c3)C(=O)N[C@@H](CCC(=O)O)C(=O)NCCSSCCNC(=O)CCC(=O)N[C@@H](CCC(=O)O)C(=O)N[C@@H](CCCNC(=N)N)C(=O)NCC(=O)N[C@@H](CC(=O)O)C(=O)O)c(OC)c2)ccc1O [Nap-Cur, Nap–GFFYK(Cur)E-ss-ERGD] | – | – | – | ~1349 µg/mL | – | – | – | 28.7 | ≥ 10 | 29.7 | 670 | 641
